Source: patent publication US20240254227A1
Residue numbers refer to the chain shown, from its start. Values belong to the binder of their own block, whether it stands above or below them.

Columns and labels:
[1] = target: CD300A/C/D/E/G (pool of five stable Freestyle HEK cell lines expressing huCD300A, huCD300C, huCD300D, huCD300E and huCD300G); assay: flow cytometry, pooled stable Freestyle HEK cells
[2] = target: cynomolgus monkey CD300LB transiently expressed on HEK293 cells (cynomolgus monkey); assay: flow cytometry, transfected HEK293, 10 ug/mL, isotype subtracted
Chain of cynomolgus monkey CD300LB transiently expressed on HEK293 cells (cynomolgus monkey) (chain, as listed by the source limits assumed, form in doubt): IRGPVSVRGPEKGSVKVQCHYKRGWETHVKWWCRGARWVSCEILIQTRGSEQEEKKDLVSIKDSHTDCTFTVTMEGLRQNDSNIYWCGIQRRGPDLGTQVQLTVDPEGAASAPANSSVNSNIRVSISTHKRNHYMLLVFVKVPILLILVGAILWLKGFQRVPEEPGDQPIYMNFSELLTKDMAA

[3] = target: murine CD300LB-Fc (mouse); assay: SPR (Carterra LSA), antibody immobilised, Fc fusion at 300 or 600 nM
Chain of murine CD300LB-Fc (mouse) (chain, as listed by the source limits assumed): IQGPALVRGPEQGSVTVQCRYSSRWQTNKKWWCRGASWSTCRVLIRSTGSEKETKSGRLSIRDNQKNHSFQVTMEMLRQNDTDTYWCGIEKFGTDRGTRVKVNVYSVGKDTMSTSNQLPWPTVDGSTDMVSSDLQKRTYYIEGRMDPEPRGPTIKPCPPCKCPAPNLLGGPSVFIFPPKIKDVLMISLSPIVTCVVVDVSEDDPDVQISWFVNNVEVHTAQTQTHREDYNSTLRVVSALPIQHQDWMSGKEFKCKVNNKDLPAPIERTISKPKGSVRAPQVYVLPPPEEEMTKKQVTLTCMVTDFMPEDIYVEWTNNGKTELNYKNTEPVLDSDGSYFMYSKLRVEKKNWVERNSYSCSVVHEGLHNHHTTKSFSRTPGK

[4] = target: huCD300F constitutively expressed on 293 Freestyle (Freestyle HEK) cells (human) (UniProt Q8TDQ1); assay: flow cytometry, stable Freestyle HEK cells
Chain of huCD300F constitutively expressed on 293 Freestyle (Freestyle HEK) cells (human) (Q8TDQ1 other isoform, or with tags, fused parts or gaps): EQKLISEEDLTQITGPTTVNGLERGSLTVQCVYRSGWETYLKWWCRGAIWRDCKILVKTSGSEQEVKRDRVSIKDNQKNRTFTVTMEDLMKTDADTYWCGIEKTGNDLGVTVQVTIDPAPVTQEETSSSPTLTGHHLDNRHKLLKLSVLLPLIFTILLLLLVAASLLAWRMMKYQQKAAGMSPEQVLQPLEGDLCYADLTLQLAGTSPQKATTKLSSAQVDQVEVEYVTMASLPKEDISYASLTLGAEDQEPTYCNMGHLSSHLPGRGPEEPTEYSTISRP

[5] = target: recombinant human CD300LB overexpressed on Jurkat cells (human) (UniProt A8K4G0); assay: flow cytometry, stable Jurkat cells, supernatant or 10 ug/mL, isotype subtracted
Chain of recombinant human CD300LB overexpressed on Jurkat cells (human) (A8K4G0 18-201 limits assumed): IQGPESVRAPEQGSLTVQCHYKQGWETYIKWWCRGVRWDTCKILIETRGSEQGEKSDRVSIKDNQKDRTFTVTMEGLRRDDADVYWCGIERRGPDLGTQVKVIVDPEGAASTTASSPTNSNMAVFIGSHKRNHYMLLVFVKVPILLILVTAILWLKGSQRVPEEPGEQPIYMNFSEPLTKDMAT

murine CD300C-Fc (mouse) = assay: SPR (Carterra LSA), antibody immobilised, Fc fusion at 300 or 600 nM
Chain of murine CD300C-Fc (mouse) (chain, as listed by the source limits assumed): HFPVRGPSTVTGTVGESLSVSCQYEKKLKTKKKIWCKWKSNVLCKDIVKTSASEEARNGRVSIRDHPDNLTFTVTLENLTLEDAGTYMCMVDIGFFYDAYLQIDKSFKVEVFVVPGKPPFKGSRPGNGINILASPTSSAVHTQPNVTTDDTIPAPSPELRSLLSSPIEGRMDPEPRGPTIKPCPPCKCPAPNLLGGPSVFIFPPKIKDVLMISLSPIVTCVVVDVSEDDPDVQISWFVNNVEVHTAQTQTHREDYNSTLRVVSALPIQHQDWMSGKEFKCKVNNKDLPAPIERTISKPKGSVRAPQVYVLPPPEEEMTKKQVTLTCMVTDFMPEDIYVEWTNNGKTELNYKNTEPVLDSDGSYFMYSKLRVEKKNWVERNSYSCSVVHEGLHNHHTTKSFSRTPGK

- gMFI [1]: 42.5 gMFI
- gMFI [2]: 39 gMFI
B2: anti-CD300LB antibody CD-07 (antibody, V domains shown)
VH: QVQLVQSGAEVKKPGASVKVSCKASGYTFTNYRMHWVRQAPGQGLEWMGWINPNSGGTIYAQKFQGRVTMTRDTSTSTVYMELSSLRSEDTAVYYCARDLDYWGQGTLVTVSS
VL: DIQMTQSPSSLSASVGDRVTITCQASQDISNYLNWYQQKPGKAPKLLIYGASSLQSGVPSRFSGSGSGTDFTLTISSLQPEDFATYYCQQSYSTPWTFGPGTKVEIK

- gMFI [1]: -21.5 gMFI
- gMFI [2]: 190 gMFI
B5: anti-CD300LB antibody CD-01 (antibody, V domains shown)
VH: RVQLQQSGAELVRPGASVTLSCKASGFTFTDFEMHWVKKTPVHGLEWIGAIDPESGNTAYNQKFRGKATLTADKSSSTAYMELRYLTSEDSAVYYCTPLISGADYWGQGTTLTVSS
VL: DVVMTQSPLSLPVSLGDQASISCRSSQSLVHSDGNTYLYWYLQKPGQSPKLLIYKVSNRFSGVPDRFSGSGSGTDFTFKISRVGAEDLGVYFCSQSTHVPWTFGGGTKLEII

- gMFI [5]: 31 gMFI
B8: anti-CD300LB antibody CD-16 (antibody, V domains shown)
VH: QIQLVQSGPELKKPGETVKISCKASGYTFTDYSMHWVKQAPGKGLKWMAWINTETGEPTYADDFRGRFAFSLETSGRTAYLEINNLRNEDTATYFCVTYGSSYGMAYWGQGTSVTVSS
VL: DIVLTQSPASLAVSLGQRATISCRASKSVSRSGYSYLHWYQQKPGQPPKLLIYLASKLESGVPARFSGSGSGTDFTLNIHPVEAEDAATYYCQHNREIPPTFGGGTKLEIK

- gMFI [1]: 166 gMFI
- gMFI [2]: -43.5 gMFI
B9: anti-CD300LB antibody CD-08 (antibody, V domains shown)
VH: EVQLLESGGGLVQPGGSLRLSCAASGFTFSNAWMSWVRQAPGKGLEWVSVISGSGGRTYYADSVKGRFTISRDNSKNTLYLQMNSLRAEDTAVYYCARDGTTVAPKGMDVWGQGTTVTVSS
VL: B2 VL with S30N, L33V, G50A, S53N, T94P, W96Y, P100Q, V104L

More lines, now with the values behind:

B1: anti-CD300LB antibody CD-05 (antibody, V domains shown)
VH: QVQLVQSGAEVKKPGASVKVSCKASGYTFSRYYINWVRQAPGQGLEWMGWINPNSGGTNYAQKFQGRVTMTRDTSTSTVYMELSSLRSEDTAVYYCTTDQLRFGKTGPYYGMDVWGQGTTVTVSS
VL: B2 VL with Q24R, D28N, S30G, N31T, G50A, T94D, P95T, W96L, P100G
- gMFI [1]: 2510 gMFI
- gMFI [2]: -62.5 gMFI
- SPR binding (control subtracted) [3]: 3.65

B3: anti-CD300LB antibody CD-09 (antibody, V domains shown)
VH: QVQLVQSGAEVKKPGASVKVSCKASGYTFTTYAVHWVRQAPGQGLEWMGIINPNSGGTNYAQKFQGRVTMTRDTSTSTVYMELSSLRSEDTAVYYCARDIVPMNNFYNYYYGMDVWGQGTTVTVSS
VL: B2 VL with Q24R, D28S, N31S, G50A, A51T, S53T, S93R, T94I, W96Y, P100Q
- gMFI [1]: -25.5 gMFI
- gMFI [2]: -19.5 gMFI

B4: anti-CD300LB antibody CD-06 (antibody, V domains shown)
VH: B3 VH with I51V
VL: B2 VL with Q24R, D28S, N31S, G50A, A51T, S53T, S93R, T94I, W96Y, P100Q
- gMFI [1]: 779 gMFI
- gMFI [2]: -51 gMFI

B6: anti-CD300LB antibody CD-04 (antibody, V domains shown)
VH: QVQLQQSGAELVRPGASVTLSCRASGYTFTDFEMHWVKQTPLHGLEWIGAIAPETGGTAYNQKFKGKAILTADKSSSTAYVELRSLTSEDSAVYFCTRLGGMDYWGQGTSVTVSS
VL: B5 VL with S7T, S28T, S32N, D33N, K55Q, S61F, F78L, G84E, V90L, I112K
- gMFI [1]: 52.5 gMFI
- gMFI [2]: 72.2 gMFI
- gMFI [4]: 163 gMFI

B7: anti-CD300LB antibody CD-15 (antibody, V domains shown)
VH: QIQLVQSGPELKKPGETVKISCQVSGYTFTDYSMHWLKQAPGKGLKWMAWINTETGESTYTDEFKGRFVFSLETSVRTAYLKINNLKNEDTATYFCGTYGSSYGMAYWGQGTSVTVSS
VL: B8 VL with A12P, R31T, Y34S, S67R, A84E, I98V
- gMFI [5]: 22 gMFI

B10: anti-CD300LB antibody CD-10 (antibody, V domains shown)
VH: QVQLQQSGPELVRPGVSVKISCKGSGYTFTDYAMHWVKQSHVRSREWIGVIGTYNGHTNYNQKFKGKATMTVDKSSSTAYLELARLTSEDSAIYYCARSGSYYYSMDYWGQGTSVTVSS
VL: QIVLTQSPAIMSASPGEKVTMTCSASSSVNYMHWYQQKSGTSPKRWIYDTSKLSSGVPARFSGSGSGTSYSLTISTMEAEDAATYYCQQWSSNPPMTFGGGTKLEIK
- SPR binding (control subtracted) (murine CD300C-Fc (mouse)): 11.8

B11: anti-CD300LB antibody CD-11 (antibody, V domains shown)
VH: QIQLVQSGPEVKKPGETVKISCKASGYTLTDYSMHWVMQTPGTGLKWMAWMNTETGEPTYADDFKGRFAFSLETSAGTAYLQIDNLKNEDTATYFCATYGKSYGMKYWGQGTSVTVSS
VL: DIVLTQSPPSLAVSLGQRATISCRATKSVSPYLHWYQQTPGQPPKLLIYLASNLDSGVPARFSGSGSGTDFTLNIHPVEEEDAATYYCQHNKELPPTFGGGTRLEIK
- SPR binding (control subtracted) (murine CD300C-Fc (mouse)): 37.8
